Test results published in US10047341B2, “Generation of keratinocytes from pluripotent stem cells and maintenance of keratinocyte cultures” (FUJIFILM Cellular Dynamics, Inc., priority 2014, dated 2018).

Legend:
[1] = test system: primary human keratinocytes; assay: Long-term culture of primary keratinocytes (population doubling); conditions: niacinamide 3 mM, BMP4 0.5 ng/mL as components of KCM4
Protocol: Keratinocytes were maintained in the indicated medium and passaged every 4-5 days (at ˜80% confluence). For passage, keratinocytes were incubated with a 0.1% Trypsin in Versene solution at 37° C. for 5 minutes. The trypsin was neutralized with 0.5 mg/mL of trypsin inhibitor. The cells were centrifuged at 1200 rpm for 4 min. Cells were counted with a Cellometer (Nexcelom). Cells (25,000-50,000) were plated per well of 6-well plates in the indicated keratinocyte culture media. Media was changed every other day.
Cells were maintained by serial passage at ˜80% confluence until senescence. The total number of cell doublings for each passage was calculated using the following formula: 3.32 log(N/No). Where No refers to the number of cells plated at the beginning of each passage and N is the number of cells recovered at the end of each passage.

[2] = test system: human ESC/iPSCs; assay: iKCs derivation from human ESC/iPSCs: critical medium components; type: cell-based; conditions: Passage 0, Day 14 differentiation culture, anti-K14 immunofluorescence

B1: BMP4: growth factor BMP4, neuronal fate suppressor, medium supplement (protein, UniProt P12644 293-408, looked up)
Bone morphogenetic protein 4: SPKHHSQRARKKNKNCRRHSLYVDFSDVGWNDWIVAPPGYQAFYCHGDCPFPLADHLNSTNHAIVQTLVNSVNSSIPKACCVPTELSAISMLYLDEYDKVVLKNYQEMVVEGCGCR
- life span and stemness of primary keratinocytes in culture [1]: maintained the stemness of primary keratinocyte stem cells in culture
- life span and stemness of primary keratinocytes in culture ([1]; listed as BMP-4): extend the life span of primary keratinocytes in culture

B2: FGF7: fibroblast growth factor FGF7 (protein, UniProt P21781 32-194, looked up)
Fibroblast growth factor 7: CNDMTPEQMATNVNCSSPERHTRSYDYMEGGDIRVRRLFCRTQWYLRIDKRGKVKGTQEMKNNYNIMEIRTVAVGIVAIKGVESEFYLAMNKEGKLYAKKECNEDCNFKELILENHYNTYASAKWTHNGGEMFVALNQKGIPVRGKKTKKEQKTAHFLPMAIT
- K14 expression with different fibroblast growth factors [2]: did not promote homogeneous K14 expression
